Reference: US20240360436A1 (DDBIO, published 2024)
Positions count from the first letter of the chain named.

B1: Selicrelumab (Fab, V domains shown)
VH: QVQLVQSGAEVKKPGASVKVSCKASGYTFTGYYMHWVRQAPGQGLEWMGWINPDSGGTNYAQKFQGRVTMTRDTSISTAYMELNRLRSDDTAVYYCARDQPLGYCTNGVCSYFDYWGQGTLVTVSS
VL: DIQMTQSPSSVSASVGDRVTITCRASQGIYSWLAWYQQKPGKAPNLLIYTASTLQSGVPSRFSGSGSGTDFTLTISSLQPEDFATYYCQQANIFPLTFGGGTKVEIKR
notes: Also expressed as full-length antibody; also called #1; Positive antibody
B2: DDBK003-14 (Fab, V domains shown)
VH: QVQLVESGAEVKKPGSSVKVSCKASGGTFSASAISWVRQAPGQGLEWMGGIFPILGSANYAQKFQGRVTITADESTSTAYMELSSLRSEDTAVYYCARDLAGYNYGFFGYWGRGTLVTVSS
VL: B1 VL with Y30N, K42R, N45K, N92K, I93S
notes: Light- and heavy-chain double replacement clone of Selicrelumab; also expressed as KLC/IgG1
B3: DDBK003-13 (Fab, V domains shown)
VH: EVQLVQSGPGLVRPSETLSLTCSASGGSVSSASDLWGWIRQAPGKGLEWIGNIYYLGKTDYNPSLGGRVSITMDKSKNQFSLRLSSVTAADTAMYYCAKRSTLPMRGFFVSWGQGTTVTVSS
VL: B1 VL
notes: Heavy-chain replacement clone of Selicrelumab; also expressed as KLC/IgG1
B4: DDBK003-12 (Fab, V domains shown)
VH: QVQLQESGPGLVKPSETLSLTCNVSGYSITRGYFWGWIRQPPGKGLEWIGSIYQSGAARYNPSLQSRVTLSVDTSKNQFSLKLTSVTAADTAVYYCARDAATQVRGSWYNGYYFDPWGQGTLVTVSS
VL: B1 VL
notes: as for B3
B5: DDBK003-16 (Fab, V domains shown)
VH: B2 VH
VL: B1 VL with Y30S, N45K, T50A, T53S, I93S, V104L
notes: as for B2
B6: DDBK003-2 (Fab, V domains shown)
VH: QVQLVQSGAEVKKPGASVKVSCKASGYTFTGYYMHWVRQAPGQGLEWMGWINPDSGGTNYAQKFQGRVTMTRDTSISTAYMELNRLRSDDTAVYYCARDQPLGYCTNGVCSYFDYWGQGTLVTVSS
VL: DIQMTQSPSSVSASVGDRVTITCRATQDIRPWLAWYQQRPGKAPQLLIYRTSTLQSGVPSRFSGSGSGTDFTLTISNLQPEDFATYYCQHAKIFPITFGQGTRLEIKR
notes: Light-chain replacement clone of Selicrelumab; also expressed as full-length antibody (KLC/IgG1)
B7: DDBK003-3 (Fab, V domains shown)
VH: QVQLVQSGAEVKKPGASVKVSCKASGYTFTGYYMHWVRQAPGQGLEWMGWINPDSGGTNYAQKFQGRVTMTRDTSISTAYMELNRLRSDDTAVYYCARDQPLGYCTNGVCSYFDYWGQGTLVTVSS
VL: DIQMTQSPSSVSASIGDRVTVTCRASQAIGSWVAWYQQKPGKVPKLLIYSASKIQSGVPSRFSGSGSGTDFTLTISSLQPEDFATYYCQQANSFPITFGQGTLLEIKR
notes: Light-chain replacement clone of Selicrelumab; also expressed as KLC/IgG1

Biological target: T1, CD40 antigen (biotin-label-free, AcroBio Cat #: CDO-H5253) (UniProt P25942 21-193)
T1 construct: Bought protein; A biotin-labeled form (CDO-H82E8) was used for panning only; also called CD40 antigens
Test: ELISA, CD40 antigen coated, anti-flag-HRP, OD405

T1 sequence (P25942 21-193 limits assumed): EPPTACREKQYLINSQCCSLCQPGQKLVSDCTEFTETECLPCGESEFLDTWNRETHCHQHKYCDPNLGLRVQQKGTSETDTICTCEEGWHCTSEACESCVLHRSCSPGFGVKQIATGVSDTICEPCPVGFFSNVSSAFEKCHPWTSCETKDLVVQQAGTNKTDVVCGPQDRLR

**Q.** How did the ELISA reading turn out when B1 was run?
**A.** 2.92 OD405

**Q.** Which ELISA reading does the source give for B2 here?
**A.** 2.02 OD405

**Q.** B3 was tested. Which ELISA reading did it give?
**A.** 3.33 OD405

**Q.** Which ELISA reading does the source give for B4 here?
**A.** 3.22 OD405

**Q.** With B5 as the binder, how does the ELISA reading read?
**A.** 1.93 OD405

**Q.** B6 was tested. Which ELISA reading did it give?
**A.** 3.15 OD405

**Q.** For B7, which ELISA reading is on record?
**A.** 2.87 OD405
